# Measurements: the DeepSol protein solubility set
# Test: soluble on expression in E. coli; label from the status in PepcDB or PDB records
row,Sequence,soluble on expression in E. coli
1,MFFLEHGKVRTFLTPTLRCPMEKTTTQELLAQAEKICAQRNVRLTPQRLEVLRLMSLQDGAISAYDLLDLLREAEPQAKPPTVYRALDFLLEQGFVHKVESTNSYVLCHLFDQPTHTSAMFICDRCGAVKEECAEGVEDIMHTLAAKMGFALRHNVIEAHGLCAACVEVEACRHPEQCQHDHSVQVKKKPR,not soluble
2,MTYLAVVLNGPKAKNGRKVFDSFLEQNRQMFWNRELTSACESITYMGFMRPGTLFVSGPASQLTVLKDAWARRILKPAMGYTITSLGDLGAIQQVEQMHFVPLGDVICDAVAQLNRQGLAATEQAIRQYVARHCPHVAPPGIEMVRQTITSLLSTGFVYKMADHYFVSVPTNSPMRPPAKAATKTTKTTVECQTGASMMCPQQTSTSSDEHVIEPAKKDHKKCQNSNRRSIFARLFSRGMKPQTIMPSASPIHVGGPPTPPPAAMLPTKNKYPTYHHDLNEECQRKARRRNHPRRGETQKLLSSSSECLKYYPVDMPETRPTRRRARMASPLRSSTPNNSDSAYSISPPHTDSNEEAGSISDSEINHTYININKFRRQNFDSTQFEDLTGATATTSEEPEILGRHIRGVLISNL,not soluble
3,MSLNPANLPFDSDTMLQGLRAWVECESPTWDTAAVERMLDLAAREMAIMGATIERIAGRQGFAGCVRARFPHPKQGEPGILIAGHLDTVHPVGTLSKLPFRREGNKAFGPGIFDMKGGNYLTLEAIKQLARASFTTPLPITVLFTPDEEVGTPSTRDIIEAEAARNKYVLVPEPGRPDNGVVTGRYAIARFNLEAIGKPSHAGATLSSGRSAIREMAKQILAIDAMTTEDCTFSVGIVHGGQWVNCVATTCTGEALSMAKRQADLDRGVDRMLALSGSSSDVTFKVTRGVTRPVWEPDSGTMALYEKARAVASQLGVSLPHGSAGGGSDGNFTGAMGIPTLDGLGVRGADAHTLNEHIEVDSLAERGRLMAGLLATLEEGHHHHHH,not soluble
4,MNTVRSEKDSMGAIDVPADKLWGAQTQRSLEHFRISTEKMPTSLIHALALTKRAAAKVNEDLGLLSEEKASAIRQAADEVLAGQHDDEFPLAIWQTGSGTQSNMNMNEVLANRASELLGGVRGMERKVHPNDDVNKSQSSNDVFPTAMHVAALLALRKQLIPQLKTLTQTLNEKSRAFADIVKIGRTHLQDATPLTLGQEISGWVAMLEHNLKHIEYSLPHVAELALGGTAVGTGLNTHPEYARRVADELAVITCAPFVTAPNKFEALATCDALVQAHGALKGLAASLMKIANDVRWLASGPRCGIGEISIPENEPGSSIMPGKVNPTQCEALTMLCCQVMGNDVAINMGGASGNFELNVFRPMVIHNFLQSVRLLADGMESFNKHCAVGIEPNRERINQLLNESLMLVTALNTHIGYDKAAEIAKKAHKEGLTLKAAALALGYLSEAEFDSWVRPEQMVGSMKAGRHHHHH,soluble
5,MSVGKPLPHDSARAHVTGQARYLDDLPCPANTLHLAFGLSTEASAAITGLDLEPVRESPGVIAVFTAADLPHDNDASPAPSPEPVLATGEVHFVGQPIFLVAATSHRAARIAARKARITYAPRPAILTLDQALAADSRFEGGPVIWARGDVETALAGAAHLAEGCFEIGGQEHFYLEGQAALALPAEGGVVIHCSSQHPSEIQHKVAHALGLAFHDVRVEMRRMGGGFGGKESQGNHLAIACAVAARATGRPCKMRYDRDDDMVITGKRHDFRIRYRIGADASGKLLGADFVHLARCGWSADLSLPVCDRAMLHADGSYFVPALRIESHRLRTNTQSNTAFRGFGGPQGALGMERAIEHLARGMGRDPAELRALNFYDPPERGGLSAPPSPPEPIATKKTQTTHYGQEVADCVLGELVTRLQKSANFTTRRAEIAAWNSTNRTLARGIALSPVKFGISFTLTHLNQAGALVQIYTDGSVALNHGGTEMGQGLHAKMVQVAAAVLGIDPVQVRITATDTSKVPNTSATAASSGADMNGMAVKDACETLRGRLAGFVAAREGCAARDVIFDAGQVQASGKSWRFAEIVAAAYMARISLSATGFYATPKLSWDRLRGQGRPFLYFAYGAAITEVVIDRLTGENRILRTDILHDAGASLNPALDIGQIEGAYVQGAGWLTTEELVWDHCGRLMTHAPSTYKIPAFSDRPRIFNVALWDQPNREETIFRSKAVGEPPFLLGISAFLALHDACAACGPHWPDLQAPATPEAVLAAVRRAEGRA,soluble
